From publication PMC9537594 (2022)

B1: GST-NUP153_(1306-1450)(LCR-FG-LCR) (domain or fragment)
chain: FGTGPSAPSASPAFGANQTPTFGQSQGASQPNPPGFGSISSSTALFPTGSQPAPPTFGTVSSSSQPPVFGQQPSQSAFGSGTTPNSSSAFQFGSSTTNFNFTNNSPSGVFTFGANSSTPAASAQPSGSGGFPFNQSPAAFTVGSN
B2: GST-SEC24C_(196-314)(LCR-FG-LCR) (domain or fragment)
chain: HPGIQTPQRSAPSQASSFTPPASGGPRLPSMTGPLLPGQSFGGPSVSQPNHVSSPPQALPPGTQMTGPLGPLPPMHSPQQPGYQPQQNGSFGPARGPQSNYGGPYPAAPTFGSQPGPPQ
B3: GST-CPSF6_(261-358)(LCR-FG-LCR) (domain or fragment)
chain: SDIIPTTENLYFQGAIAEIPIFGLKAGQTPPRPPLGPPGPPGPPGPPPPGQVLPPPLAGPPNRGDRPPPPVLFPGQPFGQPPLGPLPPGPPPPVPGYGPPPGPPPPQQGPPPPPG

Biological target: Native HIV-1 cores (mature CA lattice of hexamers and pentamers) (HIV-1)

Binder | Kd [nM]
B1 | 310
B2 | 810
B3 | 890
